Assay results from publication PMC10341521, “Rapid Generation and Molecular Docking Analysis of Single-Chain Fragment Variable (scFv) Antibody Selected by Ribosome Display Targeting Cholecystokinin B Receptor (CCK-BR) for Reduction of Chronic Neuropathic Pain” (International Journal of Molecular Sciences, 2023).
Read-outs that look alike come from different tables or passages of the source. One block for each binder: values may come before it.

How the values were obtained:
[1] = target: T1, mouse CCK-B receptor peptide (custom 15-amino-acid extracellular mouse sequence) (Mus musculus, UniProt P56481)
T1 chain: CETPRIRGTGTRELE

[2] = target: T1, mouse CCK-B receptor peptide (custom …); test: not stated
[3] = target: T2, mouse CCK-B receptor peptide (custom 15-amino-acid extracellular mouse sequence) (mouse); test: BLI
T2 chain: CETPRIRGTGTRELE

[4] = target: T1, mouse CCK-B receptor peptide (custom …); test: BLI; Octet RED384 instrument; scFv77-2 and mouse CCK-B peptide; details: both partners purified
[5] = target: T1, mouse CCK-B receptor peptide (custom …); test: ELISA; indirect ELISA of the scFvs on CCK-B receptor peptide, concentration-dependent; apparent affinity; methods in the supplementary section; details: both partners purified

binding result [1]: binds
B1: CCK-BR_scFv13-3 (antibody, V domains shown)
VH: EVQLQQSGAELVKPGASVKMSCKASGYTFTSYWMHWVKQRPGQGLEWIGYINPSTGYTEYNQKFKDKATLTADKSSSTAYMQLSSLTSEDSAVYYCAGDNYGYWYFDVWGAGTTVTVSS
VL: DIVMTQSPSSLSVSAGEKVTMSCKSSQSLLNSGNQKNYLAWYQQKPGQPPKLLIYGASTRESGVPDRFTGSGSGTDFTLTISSVQAEDLAVYYCQNDHSYPYTFGGGTKLEIK

Kd [2]: 195 nM
koff [3]: 0.000381 s⁻¹
Kd [4]: 17.9 nM
B2: CCK-B scFv77-2 antibody (scFv, V domains shown)
VH: EVQLQQSGAELVRSGASVKLSCTASGFNIKDYYIHWVKQRPEQGLEWIGWIDPENGDTEYAPKFQGKATMTADTSSNTAYLQLSSLTSEDTAVYYCNAGGRFAYWGQGTLVTVSA
VL: B1 VL
notes: VH of scFv77-2; 20-amino-acid flexible linker, printed as the formula [(G4S)4] and written out from it; VL of scFv77-2; Selected by ribosome display from a library of immunised mice; Apparent mass 26 kDa on the gel; The His-tag is named only for the Western blots of tissue after injection; Construct and methods are in the supplementary section; also called CCK-BR scFv 77-2; CCKBR scFv 77-2; …

binding result [5]: binds
B3: CCK-B scFv134-1 antibody (scFv, V domains shown)
VH: EVQLQQSGAELVKPGASVKMSCKASGYTFTDYWMHWVKQRPGQGLEWIGAIDTSDSYTSYNQKFKGKATLTVDKSSSTAYIQLSSLTSEDSAVYYCARSEGYLPFDYWGQGTTLTVSS
VL: DVVMTQTPLSLPVSFGDQVSISCRSSQSLANSYGNTYLSWYLHKPGQSPQLLIYGISNRFSGVPDRFSGSGSGTDFTLKISTIKPEDLGMYYCLQGTHQPRTFGGGTKLEIK
notes: VH of scFv134-1; 20-amino-acid flexible linker, printed as the formula [(G4S)4] and written out from it; VL of scFv134-1; One of the panel of 7 anti-CCK-B receptor scFvs; Construct and methods are in the supplementary section; source: E. coli cytoplasm (pET32a expression vector), purified

binding result [1]: binds
B4: CCK-BR_scFv8-3 (antibody, V domains shown)
VH: QVQLKESGAELAKPGASVKMSCKASGYTFTSYWMHWVKQRPGQGLEWIGYINPSTGYTEYNQKFKDKATLTADKSSSTAYMQLSSLTSEDSAVYYCARDYGSSFDYWGQGTTLTVSS
VL: DVVMTQTPLTLSVTIGQPASISCKSSQSLLDSGNQKNYLAWYQQKPGQPPKLLIYGASTRESGVPDRFTGSGSGTDFTLTISSVQAEDLAVYYCQNDHSYPYTFGGGTKLEIK

binding result [1]: binds
B5: CCK-BR_scFv93-1 (antibody, V domains shown)
VH: QVQLKESGPGLVAPSQSLSITCTVSGFSLTSYGVHWVRQPPGKGLEWLGVIWAGGSTNYNSALMSRLSISKDNSKSQVFLKMNSLQTDDTAMYYCARGLRGAMDYWGQGTSVTVSS
VL: DIVMTQSPSSLSVSAGEKVTMSCKSSQSLLASGNQNNYLAWHQQKPGRSPKMLIIWASTRESGVPDRFTGSGSGTDFTLTISSVQAEDVAVYYCQNDHSYPFTFGSGTKLEIK

binding result [1]: binds
B6: CCK-BR_scFv11-2 (antibody, V domains shown)
VH: QVQLKQSGAELVRPGSSVKISCKASGYAFTNYLIEWVKQRPGQGLEWIGQIYPGDGDTNYNGKFKGKATLTVDNSSSTAYMELRSLTSEDSAVYYCARAATWYYAMDYWGQGTSVTVSS
VL: QIVLTQSPAIMSASPGEKVTITCSASSSVSYMHWFQQKPGTSPKLWIYSTSNLASGVPARFSGSGSGTSYSLTISSMEAEDAASYFCHQWSSYPWTFGGGTKLEIK
